Test results: patent US20240116985A1, “STAPLED PEPTIDES AND METHODS THEREOF” (priority 2020, published 2024)
Starred links: 1 amine or outer side, 2 acyl side, 3 side chain; linkers in the order of their positions; H or OH if unused. Positions of bridges follow the written chain, without caps; N, C: chain ends. Non-standard residues stand in square brackets, D forms with d. Primed or numbered codes have the meaning given here. No end group written: not given here. PyrS2″ = (S)-3-amino-1-((pent-4-en-1-yloxy)carbonyl)pyrrolidine-3-carboxylic acid (stapling residue), C=CCCCOC(=O)N1CC[C@@](N[*:1])(C(=O)[*:2])C1; B5(16) = 2-amino-2-(pent-4-en-1-yl)hept-6-enoic acid = 2,2-bis(4-pentenyl)glycine (stitching residue), C=CCCCC(CCCC=C)(N[*:1])C(=O)[*:2]; B5(4) = 2,2-bis(4-pentenyl)glycine = 2-amino-2-(pent-4-en-1-yl)hept-6-enoic acid (stitching residue), C=CCCCC(CCCC=C)(N[*:1])C(=O)[*:2]; B5(5) = 2,2-bis(4-pentenyl)glycine, 2-amino-2-(pent-4-en-1-yl)hept-6-enoic acid (stitching residue), C=CCCCC(CCCC=C)(N[*:1])C(=O)[*:2]; PyrS2 = (S)-3-amino-1-((pent-4-en-1-yloxy)carbonyl)pyrrolidine-3-carboxylic acid, C=CCCCOC(=O)N1CC[C@@](N[*:1])(C(=O)[*:2])C1; SPip2 = 4-amino-1-((pent-4-en-1-yloxy)carbonyl)piperidine-4-carboxylic acid, C=CCCCOC(=O)N1CCC(N[*:1])(C(=O)[*:2])CC1; B5(25) = 2-amino-2-(pent-4-en-1-yl)hept-6-enoic acid (stitching residue), C=CCCCC(CCCC=C)(N[*:1])C(=O)[*:2]; EtGA = (S)-2-amino-3-((carboxymethyl)(ethyl)amino)propanoic acid, CCN(CC(=O)[*:3])C[C@H](N[*:1])C(=O)[*:2]; B5 = 2-amino-2-(pent-4-en-1-yl)hept-6-enoic acid, C=CCCCC(CCCC=C)(N[*:1])C(=O)[*:2]; Phe(3-COOH) = N[C@@H](Cc1cccc(C(=O)O)c1)C(=O)O; Phe(2-CF3) = N[C@@H](Cc1ccccc1C(F)(F)F)C(=O)O; Phe(2-Cl) = N[C@@H](Cc1ccccc1Cl)C(=O)O; Phe(2-Me) = Cc1ccccc1C[C@H](N)C(=O)O; Bta = N[C@@H](Cc1csc2ccccc12)C(=O)O; αAllylPro = C=CC[C@@]1(C(=O)O)CCCN1; tBuAla = CC(C)(C)C[C@H](N)C(=O)O; 3Thi = N[C@@H](Cc1ccsc1)C(=O)O; Cha = N[C@@H](CC1CCCCC1)C(=O)O; S8 = C=CCCCCCC[C@](C)(N)C(=O)O; Thr(ol) = C[C@@H](O)[C@H](N)CO; Aib = CC(C)(N)C(=O)O

What was measured:
Bcat-Halo [1] = target: Bcat-Halo (UniProt P35222); test: NanoBRET Abs IC50, HEK293 cells transfected with Bcat-Halo and TCF4-Luc (competitor: TCF4-Luc); cellular assay
[2] = target: full-length beta-Catenin (Uniprot ID P35222) (Homo sapiens (Human)) (UniProt P35222); test: fluorescence polarization competition; 10 nM full-length beta-catenin + 10 nM 5FAM-TCF4 10-53 as competitor probe
Target sequence in this assay (P35222 2-781 limits assumed): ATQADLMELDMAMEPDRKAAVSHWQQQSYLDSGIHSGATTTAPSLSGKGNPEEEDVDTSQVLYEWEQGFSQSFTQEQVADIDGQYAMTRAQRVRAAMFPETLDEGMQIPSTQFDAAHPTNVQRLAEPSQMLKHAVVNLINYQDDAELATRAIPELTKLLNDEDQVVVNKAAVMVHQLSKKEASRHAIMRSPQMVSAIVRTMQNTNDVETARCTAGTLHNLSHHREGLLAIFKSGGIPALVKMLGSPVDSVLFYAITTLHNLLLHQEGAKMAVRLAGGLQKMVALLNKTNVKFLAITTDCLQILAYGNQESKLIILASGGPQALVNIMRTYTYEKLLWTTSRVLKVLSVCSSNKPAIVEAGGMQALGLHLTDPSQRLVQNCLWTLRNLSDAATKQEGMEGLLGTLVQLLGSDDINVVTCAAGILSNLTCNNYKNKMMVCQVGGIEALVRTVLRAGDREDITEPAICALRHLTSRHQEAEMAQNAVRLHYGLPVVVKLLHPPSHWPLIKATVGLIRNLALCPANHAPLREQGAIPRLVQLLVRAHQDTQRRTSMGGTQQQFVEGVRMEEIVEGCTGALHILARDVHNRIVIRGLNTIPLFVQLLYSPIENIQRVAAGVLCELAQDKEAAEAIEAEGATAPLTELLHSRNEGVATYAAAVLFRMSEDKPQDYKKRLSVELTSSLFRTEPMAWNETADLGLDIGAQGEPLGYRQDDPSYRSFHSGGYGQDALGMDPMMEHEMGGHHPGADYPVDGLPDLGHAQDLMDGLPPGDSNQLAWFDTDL

[3] = target: full-length beta-Catenin (Uniprot ID P35222) (Homo sapiens (Human)) (UniProt P35222); test: fluorescence polarization competition; full-length beta-catenin with 5FAM-TCF4(10-53) probe, peptide titrated
Target sequence in this assay (P35222 whole entry, one chain of several): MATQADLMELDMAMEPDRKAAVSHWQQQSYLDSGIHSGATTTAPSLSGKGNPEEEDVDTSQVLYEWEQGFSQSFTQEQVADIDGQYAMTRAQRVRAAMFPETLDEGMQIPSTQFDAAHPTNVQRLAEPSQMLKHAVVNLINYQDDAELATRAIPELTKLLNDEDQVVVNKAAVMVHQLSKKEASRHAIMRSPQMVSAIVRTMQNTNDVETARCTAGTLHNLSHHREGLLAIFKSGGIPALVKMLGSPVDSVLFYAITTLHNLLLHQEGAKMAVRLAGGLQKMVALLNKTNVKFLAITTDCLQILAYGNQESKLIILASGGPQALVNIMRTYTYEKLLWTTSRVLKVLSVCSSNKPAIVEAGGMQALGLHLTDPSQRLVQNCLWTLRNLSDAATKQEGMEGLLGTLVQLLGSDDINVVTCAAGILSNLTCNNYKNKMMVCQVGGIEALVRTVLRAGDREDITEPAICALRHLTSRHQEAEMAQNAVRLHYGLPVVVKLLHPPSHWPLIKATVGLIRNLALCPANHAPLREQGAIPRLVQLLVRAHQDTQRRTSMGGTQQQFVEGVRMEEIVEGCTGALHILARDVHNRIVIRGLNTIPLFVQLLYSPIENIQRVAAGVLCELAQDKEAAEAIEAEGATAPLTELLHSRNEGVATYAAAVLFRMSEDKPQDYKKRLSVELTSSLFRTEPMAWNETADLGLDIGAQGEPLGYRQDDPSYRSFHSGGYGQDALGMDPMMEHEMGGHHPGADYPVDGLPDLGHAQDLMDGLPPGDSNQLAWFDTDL

[4] = target: full-length beta-Catenin (Uniprot ID P35222) (Homo sapiens (Human)) (UniProt P35222); test: cell-based or functional assay
Bcat-Halo [5] = target: Bcat-Halo (UniProt P35222); test: NanoBRET Abs IC50; B-cat-Halo / TCF4-Luc engagement in HEK293 cells
[6] = target: full-length beta-Catenin (Uniprot ID P35222) (Homo sapiens (Human)) (UniProt P35222); test: fluorescence polarization competition; full-length beta-catenin, 5FAM-TCF4 10-53 probe as competitor
Target sequence in this assay (P35222 whole entry, one chain of several): as above

Bcat-Halo [7] = target: Bcat-Halo (UniProt P35222); test: NanoBRET (Abs IC50) in HEK293 cells; Bcat-Halo / TCF4-Luc
[8] = target: full-length beta-Catenin (Uniprot ID P35222) (Homo sapiens (Human)) (UniProt P35222); test: FP competition; full-length beta-catenin + 5FAM-TCF4(10-53) probe
Target sequence in this assay (P35222 whole entry, one chain of several): as above

[9] = target: full-length beta-Catenin (Uniprot ID P35222) (Homo sapiens (Human)) (UniProt P35222); test: fluorescence polarization competition; competitor 5FAM-TCF4(10-53) probe on full-length beta-catenin
Target sequence in this assay (P35222 whole entry, one chain of several): as above

[10] = target: B-cat-Halo (beta-catenin HaloTag NanoBRET construct expressed in HEK293 cells) (UniProt P35222); test: NanoBRET Abs IC50 in HEK293 cells; Bcat-Halo, competitor TCF4-Luc
[11] = target: full-length beta-Catenin (Uniprot ID P35222) (Homo sapiens (Human)) (UniProt P35222); test: fluorescence polarization competition; full-length beta-catenin, competitor 5FAM-TCF4(10-53) probe
[12] = target: full-length beta-Catenin (Uniprot ID P35222) (Homo sapiens (Human)) (UniProt P35222); test: FP competition, full-length beta-catenin, competitor probe 5FAM-TCF4 10-53
Target sequence in this assay (P35222 2-781 limits assumed): as the sequence (P35222 2-781 limits assumed) above

Bcat-Halo [13] = target: Bcat-Halo (UniProt P35222); test: NanoBRET absolute IC50, HEK293 cells, Bcat-Halo/TCF4-Luc engagement
[14] = target: full-length beta-Catenin (Uniprot ID P35222) (Homo sapiens (Human)) (UniProt P35222); test: fluorescence polarization competition; full-length beta-catenin, 5FAM-TCF4 10-53 probe
Target sequence in this assay (P35222 whole entry, one chain of several): as the sequence (P35222 whole entry, one chain of several) above

[15] = target: full-length beta-Catenin (Uniprot ID P35222) (Homo sapiens (Human)) (UniProt P35222); test: fluorescence polarization competition; full-length beta-catenin with 5FAM-TCF4(10-53) probe as competitor
Target sequence in this assay (P35222 whole entry, one chain of several): as above

B-cat-Halo (beta-catenin HaloTag NanoBRET construct expressed in HEK293 cells), sequence (P35222 whole entry): as the sequence (P35222 whole entry, one chain of several) above
Bcat-Halo, sequence (P35222 whole entry): as the sequence (P35222 whole entry, one chain of several) above

B1: I-1044 (peptide)
peptide: Ac-[αAllylPro]D[Cha][B5(5)]DDAAFS[PyrS2″][Phe(2-Cl)][Bta]Q-NH2
modifications: staple 1-4, 4-11
IC50 (Bcat-Halo [1]): 17600 nM | EC50 [2]: 5 nM | IC50 [3]: 5 nM | DLD1 4% Abs IC50 [4]: 14500 nM | DLD1 reporter assay Abs IC50 [4]: 20000 nM

B2: I-2579 (peptide)
peptide: Ac-[αAllylPro]D[tBuAla][B5]D[Phe(3-COOH)][Aib]AFK(Ac)[PyrS2][Phe(2-CF3)][Bta]AA-NH2
modifications: staple 1-4, 4-11; not fully specified; printed as Ac-PL3-Asp-Npg-B5-Asp-3COOHF-Aib-Ala-Phe-AcLys-PyrS2-2F3MeF-BztA-Ala-Ala-NH2
IC50 (Bcat-Halo [5]): 4700 nM | IC50 [6]: 41 nM

B3: I-2029 (peptide)
peptide: Ac-[αAllylPro]D[tBuAla][B5(5)]D[Phe(3-COOH)]AAFS[PyrS2″][Phe(2-Cl)][Bta]F-NH2
modifications: staple 1-4, 4-11
IC50 (Bcat-Halo [7]): 26200 nM | IC50 [8]: 35 nM

B4: I-2023 (peptide)
peptide: Ac-[αAllylPro]D[tBuAla][B5(5)]D[Phe(3-COOH)]AAFA[PyrS2″][Phe(2-Cl)][Bta]A-NH2
modifications: staple 1-4, 4-11
IC50 (Bcat-Halo [7]): 7800 nM | IC50 [8]: 32 nM

B5: I-2024 (peptide)
peptide: Ac-[αAllylPro]D[tBuAla][B5(5)]D[Phe(3-COOH)]AAFA[PyrS2″][Phe(2-Cl)][Bta]V-NH2
modifications: staple 1-4, 4-11
IC50 (Bcat-Halo [7]): 17900 nM | IC50 [8]: 78 nM

B6: I-2028 (peptide)
peptide: Ac-[αAllylPro]D[tBuAla][B5(5)]D[Phe(3-COOH)]AAFS[PyrS2″][Phe(2-Cl)][Bta]V-NH2
modifications: staple 1-4, 4-11
IC50 (Bcat-Halo [7]): 17600 nM | IC50 [8]: 32 nM

B7: I-1326 (peptide)
peptide: [αAllylPro]D[tBuAla][B5(4)]DDAAFF[PyrS2″][Phe(2-Me)][Bta]Q-NH2
modifications: staple 1-4, 4-11
IC50 [9]: 12 nM | IC50 [10]: 6200 nM | EC50 [11]: 12 nM

B8: I-1050 (peptide)
peptide: Ac-[αAllylPro]D[Cha][B5(5)]DDAAFS[PyrS2][Phe(2-Cl)][Bta]S-NH2
modifications: staple 1-4, 4-11
IC50 (Bcat-Halo [1]): 24800 nM | EC50 [2]: 5 nM | IC50 [3]: 5 nM | DLD1 reporter assay Abs IC50 [4]: 11200 nM

B9: I-1342 (peptide)
peptide: [αAllylPro]D[tBuAla][B5(4)]D[Phe(3-COOH)]AAFF[PyrS2″][Phe(2-CF3)][Bta]S-NH2
modifications: staple 1-4, 4-11
IC50 [12]: 35 nM | IC50 (Bcat-Halo [13]): 7000 nM | IC50 [10]: 7000 nM | EC50 [11]: 35 nM

B10: I-1340 (peptide)
peptide: [αAllylPro]D[tBuAla][B5(4)]D[Phe(3-COOH)]AAFF[PyrS2″][Phe(2-Cl)][Bta][Thr(ol)]
modifications: staple 1-4, 4-11
IC50 [12]: 159 nM | IC50 (Bcat-Halo [13]): 6800 nM | IC50 [10]: 6800 nM | EC50 [11]: 159 nM

B11: I-2578 (peptide)
peptide: Ac-[αAllylPro]D[tBuAla][B5]D[Phe(3-COOH)][Aib]AFK(Ac)[PyrS2][3Thi][Bta]AA-NH2
modifications: staple 1-4, 4-11; not fully specified; printed as Ac-PL3-Asp-Npg-B5-Asp-3COOHF-Aib-Ala-Phe-AcLys-PyrS2-3Thi-BztA-Ala-Ala-NH2
IC50 (Bcat-Halo [5]): 5500 nM | IC50 [6]: 5 nM | DLD1 4% Abs IC50 [4]: 4100 nM

B12: I-2576 (peptide)
peptide: Ac-[αAllylPro]D[tBuAla][B5(25)]D[Phe(3-COOH)][Aib]AF[dS][PyrS2″][3Thi][Bta][dS]A-NH2
modifications: staple 1-4, 4-11 (inferred); not fully specified; printed as Ac-PL3-Asp-Npg-B5-Asp-3COOHF-Aib-Ala-Phe-dSer-PyrS2-3Thi-BztA-dSer-Ala-NH2
IC50 (Bcat-Halo [5]): 16100 nM | IC50 [6]: 6 nM

B13: I-1341 (peptide)
peptide: [αAllylPro]D[tBuAla][B5(4)]D[Phe(3-COOH)]AAFF[PyrS2″][Phe(2-CF3)][Bta]Q-NH2
modifications: staple 1-4, 4-11
IC50 [12]: 17 nM | IC50 (Bcat-Halo [13]): 3500 nM | IC50 [10]: 3500 nM | EC50 [11]: 17 nM

B14: I-2032 (peptide)
peptide: Ac-[αAllylPro]D[tBuAla][B5(5)]D[Phe(3-COOH)]AAFN[PyrS2″][Phe(2-Cl)][Bta]V-NH2
modifications: staple 1-4, 4-11
IC50 (Bcat-Halo [7]): 20900 nM | IC50 [8]: 16 nM

B15: I-2592 (peptide)
peptide: Ac-[αAllylPro]D[tBuAla][B5]D[Phe(3-COOH)]QAFL[SPip2][3Thi][Bta]A-NH2
modifications: staple 1-4; staple 4-11 (inferred); also: earlier-eluting HPLC staple isomer composition
IC50 (Bcat-Halo [5]): > 20000 nM | IC50 [6]: 37 nM

B16: I-608 (peptide)
peptide: Ac-[αAllylPro]DI[B5(5)]D[EtGA]AAFQ[S8]F[Bta]Q-NH2
modifications: staple 1-4, 4-11; not fully specified; printed as Ac-PL3-Asp-Ile-B5-Asp-EtGa-Ala-Ala-Phe-Gln-S8-Phe-BztA-Gln-NH2
IC50 [14]: 211 nM | IC50 [15]: 211 nM | EC50 [11]: 211 nM

B17: I-2026 (peptide)
peptide: Ac-[αAllylPro]D[tBuAla][B5(5)]D[Phe(3-COOH)]AAFA[PyrS2″][Phe(2-Cl)][Bta][dA]-NH2
modifications: staple 1-4, 4-11
IC50 (Bcat-Halo [7]): 9700 nM | IC50 [8]: 26 nM

B18: I-1339 (peptide)
peptide: [αAllylPro]D[tBuAla][B5(4)]D[Phe(3-COOH)]AAFF[PyrS2″][Phe(2-Cl)][Bta]S-NH2
modifications: staple 1-4, 4-11
IC50 [12]: 33 nM | IC50 (Bcat-Halo [13]): 5200 nM | IC50 [10]: 5200 nM | EC50 [11]: 33 nM

B19: I-1338 (peptide)
peptide: [αAllylPro]D[tBuAla][B5(4)]D[Phe(3-COOH)]AAFF[PyrS2″][Phe(2-Cl)][Bta]Q-NH2
modifications: staple 1-4, 4-11
IC50 [12]: 10 nM | IC50 (Bcat-Halo [13]): 3600 nM | IC50 [10]: 3600 nM | EC50 [11]: 10 nM

B20: I-2577 (peptide)
peptide: Ac-[αAllylPro]D[tBuAla][B5(25)]D[Phe(3-COOH)][Aib]AFS[PyrS2″][3Thi][Bta]SA-NH2
modifications: staple 1-4, 4-11 (inferred); not fully specified; printed as Ac-PL3-Asp-Npg-B5-Asp-3COOHF-Aib-Ala-Phe-Ser-PyrS2-3Thi-BztA-Ser-Ala-NH2
IC50 (Bcat-Halo [5]): 2700 nM | IC50 [6]: 7 nM

B21: I-2593 (peptide)
peptide: Ac-[αAllylPro]D[tBuAla][B5]D[Phe(3-COOH)]QAFL[SPip2][3Thi][Bta]A-NH2
modifications: staple 1-4; staple 4-11 (inferred); also: later-eluting HPLC staple isomer composition
IC50 (Bcat-Halo [5]): 29400 nM | IC50 [6]: 27 nM
